The target in this assay is human FcγRIIB (CD32B) on peripheral B cells (human) (UniProt P31994). Description: in vivo receptor occupancy on peripheral B cells of human subjects after infusion of 100 mg BI-1206 (preliminary clinical data).
Chain of UniProt P31994 (P31994 43-310): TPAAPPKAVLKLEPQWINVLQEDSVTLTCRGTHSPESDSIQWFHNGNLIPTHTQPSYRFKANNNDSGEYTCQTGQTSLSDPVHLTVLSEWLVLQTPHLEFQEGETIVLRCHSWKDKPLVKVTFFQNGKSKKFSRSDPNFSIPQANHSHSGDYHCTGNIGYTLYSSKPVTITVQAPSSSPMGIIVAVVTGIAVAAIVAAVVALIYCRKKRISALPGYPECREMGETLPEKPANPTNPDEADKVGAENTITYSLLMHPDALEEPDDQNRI

BI-1206 (antibody): the receptor occupancy amounted to 100%.

The values above are taken from patent EP3919077A1.
